Key:
PUF-9R [1] = biological target: T1, PUF-9R (human, engineered, UniProt Q14671 828-955+1028-1142+1028-1176, internal_change); test: crystal structure
PUF-10R = PUF-10R (human, engineered, UniProt Q14671 828-955+992-1142+1028-1176, internal_change); test: FP
PUF-12R = PUF-12R (human, engineered, UniProt Q14671 828-1027+992-1142+1028-1176, internal_change); test: FP
PUF-8R N1080Y = PUF-8R N1080Y (human, UniProt Q14671 828-1176, N1080Y); test: FP
[2] = biological target: PUF-8R (Pumilio1 PUF domain, wild type) (human, UniProt Q14671 828-1176); test: FP
PUF-8R R1008Y = PUF-8R R1008Y (human, UniProt Q14671 828-1176, R1008Y); test: FP
PUF-8R H972Y = PUF-8R H972Y (human, UniProt Q14671 828-1176, H972Y); test: FP
PUF-9R [3] = biological target: T1, PUF-9R; test: FP

UGUUGUAUA (ssRNA) [RNA-9nt (crystal)]
binding result (PUF-9R [1]): binds

AAUUGUUGUAAUAUUC (ssRNA) [10nt-RNA]
binding signal (PUF-10R): ~7 fold Ka vs PUF-8R:RNA-8nt

AAUUGUUGUAAUAUAUUC (ssRNA) [12nt-RNA]
binding result (PUF-12R): binds

AAUUGUAUAUAUUC (ssRNA) [8nt-RNA]
binding signal (PUF-8R N1080Y): > 8 fold Ka vs PUF-8R R1008N | binding result [2]: binds | binding result (PUF-8R R1008Y): binds | binding result (PUF-8R H972Y): binds

AAUUGUUGUAUAUUC (ssRNA) [9nt-RNA]
binding signal (PUF-9R [3]): ~12 fold Ka vs PUF-8R:RNA-8nt
